Experimental findings from the nanobody polyreactivity screen of Harvey et al. (2022) are described below.

This data set can be described thus: yeast display, Sf9 membrane polyspecificity reagent, FACS + sequencing; frameworks hold sequencing errors. In short, it runs like this: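 Synthetic nanobody libraries on Saccharomyces cerevisiae BJ5465 were galactose-induced for 36–48 hours, stained 1 hour at 4 °C with 10% biotinylated, detergent-solubilized Sf9 membrane reagent and enriched on streptavidin microbeads. FACS then separated cells into low and high (top ~1%) gates by anti-HA (expression) and streptavidin (reagent binding) fluorescence. Genes were colony-PCR amplified, MiSeq 2 × 250 sequenced and CDR-length filtered. A clone's polyreactivity label is that of its gate of origin.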
For “QVQLVESGGGIVQAGGSLRLSCAASGGIFLGNAMVWYRQAPGKERELVAGITWSGGRTYYADSVKGRFTISRDNAKNTVYLQMNSLKPEDTAVYYCNKDTPGTRFYGIYSYDYWGQGTQVTVSS”, the “polyreactivity (PSR sort gate)” value is listed as “low polyreactivity”.
Next, “QVQLVESGGGIVQAGGSLRLSCAASGGIFYGYAMGWYRQAPGKERELVAAISSTGGRTYYADSVKGRFTISRDNAKNTVYLQMNSLKPEDTAVYYCAAEDFTRQFEYWGQGTQVTVSS”: “low polyreactivity”; “QVQLVESGGGIVQAGGSLRLSCAASGGTFHYYAMGWYRQAPGKERELVAAINRSGDSTYYADSVKGRFTISRDNSKNTVYLQMNSLKPEDTAVYYCAVSYYGADGNPFPHDYWGQGTQVTVSS”: “low polyreactivity”.
Turning to “QVQLVESGGGIVQAGGSLRLSCAASGIIFWNYTMGWYRQAPGKERELVAAISVSGGSTYYADSVKGRFTISRDNAKNTVYLQMNSLKPEDTAVYYCAAEWIYPSPHYEYDYWGQGTQVTVSS”, the “polyreactivity (PSR sort gate)” value is “high polyreactivity”.
With “QVQLVESGGGIVQAGGSLRLSCAASGITFTVYAMGWYRQAPGKERELVAAITSTGSTNYADSVKGRFTISRDNAKNTVYLQMISLKPEDTAVYYCAADRQITVYAYDYWGHGTQVTVSS” the entry was “low polyreactivity”; with “QVQLVESGGGIVQAGGSLRLSCAASGITSYFNAMGWYRQAPGKERELVAITWNGGSTYYADSVKGRFTISRDNAMNTVYLQMNSLKPEDTAVYYCAARYRRYNRKYDYWGQGTQVTVSS”, “high polyreactivity”.
Consider “QVQLVESGGGIVQAGGSLRLSCAASGRIFLTNAKGWYRQAPGKERELVATITASGGTTYYADSVKGRFTISRDNAKNTVYLQMNSLKTEDTAVYYCAKRYYLRGYGRYYYWGQGTQVTVSS”, for which the “polyreactivity (PSR sort gate)” value is given as “high polyreactivity”.
Next, “QVQLVESGGGIVQAGGSLRLSCAASGRIFQLYGMGWYRQAPGKERECVAAISYGGGSTYYADSVKGRFTISRDIAKNTVYFKMNSLKPEDTAVYYCAAERRFYSLAKYQSMDYWGQGTQVTVSS”: “low polyreactivity”; “QVQLVESGGGIVQAGGSLRLSCAASGRIFQRYTMGWYRQAPGKEREFVAAITYSGGSTHYADSVKGRFTISRDNAKNTVYLQMNSLKPEDTAVYYCNADRYYGRGYGYWGQGTQVTVSS”: “low polyreactivity”; “QVQLVESGGGIVQAGGSLRLSCAASGRIFSVNAMGWYRQAPGKERELVAAITGSGTITYYADSVKGRFTISRDNAKNSVYLQMNSLKPEDTAVYYCAARPVLRYYAGYYYWGQGTQVTVSS”: “high polyreactivity”.
Next, “QVQLVESGGGIVQAGGSLRLSCAASGRIFTRNAMGWYRQAPGKERELVAAISYSGGTTYYADSVKGRFTISRDNAKNTVYLQMNSLKPEDTAVYYCAALRPTQRYFTYDYWGQGTQVTVSS”: “high polyreactivity”; “QVQLVESGGGIVQAGGSLRLSCAASGRIIRYYTMGWYRQAPGKERELVAAIRQRGGSTYYADSVKGRFTISRDNAKNTVYLHMNSLKREDTAVYYCNAVRRTTYDYWGQGTQVTVSS”: “high polyreactivity”.
“QVQLVESGGGIVQAGGSLRLSCAASGRNFYYYAMGWYRQAPGKERELVAAISWSGGRTYYADSVKGRFTISRDNAKNTVYFQMNSLKPEDTAVYYSNAEPPRGYSVSSGGEMDYWGQGTEVTVSS”: the “polyreactivity (PSR sort gate)” value was “low polyreactivity”.
With “QVQLVESGGGIVQAGGSLRLSCAASGRTFDSYAMGWYRQAPGKERELVAAITYSGGSTYYADSVKGRFTISRDNAKNTVYLQMNSLKPEDTAVYYCARDRFYYRLAGSKGRRKGDYWGQGTQVTVSS”, the “polyreactivity (PSR sort gate)” value is given as “high polyreactivity”.
Next, “QVQLVESGGGIVQAGGSLRLSCAASGRTFFLYTLGWYRQAPGKEREFVAAINYSGGRTYYADSVKGRFTISRDKAKNTVYLQMNSLKPEDTAVYYCAAYRGSYSYDYWGQGTQVTVSS”: “high polyreactivity”; “QVQLVESGGGIVQAGGSLRLSCAASGRTFNHYAMGWYRQAPGKERELVAAITNGGNTYYADSVKGRFTISRDNAKNTVYLQMNSLKPEDTAVYYCAKLYTDAIVWSAYDYWGQGTQVTVSS”: “low polyreactivity”.
Next, “QVQLVESGGGIVQAGGSLRLSCAASGRTFRPYAMGWYRQAPGKERELVAAITSGGSTYYADSVKGRFTISRDNAKNTVYLQMNSLKPEDTAVYYCNAKYYYQPPYDYWGQGTQVTVSS”: “low polyreactivity”; “QVQLVESGGGIVQAGGSLRLSCAASGRTFYAYTMGWYRQAPGKETELVAANSRTGGRTYYADSVKGRFTISRDNAKNTVYLQMNSLKPEDTAVYYCAAGSKPGIQFRSVYSAYRYYYCGQGTQVTVSS”: “high polyreactivity”.
With “QVQLVESGGGIVQAGGSLRLSCAASGRTFYYAMGWYRQAPGKERELVAAITSSSSTYYADSVKGRFTISRDNAKNTVYLQMNSLKPEDTAVYYCNSADDPYGSPSYGYDYWGQGTQVTVSS” the entry was “low polyreactivity”; with “QVQLVESGGGIVQAGGSLRLSCAASGRTIPPYGMGWYRQAPGKERELVAAISKSSGSTNYADSVKGRVTISRDNAKNTVYLQMNSLKPEDTAVYYCTKEWSIGPTGIRAYVRVWYYYWGQGTQVTVSS”, “low polyreactivity”; with “QVQLVESGGGIVQAGGSLRLSCAASGRTIPYHAMGWYRQAPGKERELDAAISYSGGRTYYADCVKGRFTISRDNAKNSVYLLMNSLKPDDTAVYYCNALGSGREDVYWGQGTQVTVSS”, “high polyreactivity”.
Regarding “QVQLVESGGGIVQAGGSLRLSCAASGRTLISYAMGWYRQAPGKERELVAAISWGGSSTYYADSVKWRFTISRDNAKNTVYLQRNSLKPEDTAVYYCNTVYYYWGKWRGTYDYWGLGTQVTVSS”, the “polyreactivity (PSR sort gate)” value is listed as “high polyreactivity”.
For “QVQLVESGGGIVQAGGSLRLSCAASGSIFKHYAMGWYRQAPGKERELVATIDYLGGRTYYADSVKGRFTISRDNAKNTVYLQMNSLKPEDTAVYYCAASRYSGKIRGEDYWGQRTQVTVSS”, the “polyreactivity (PSR sort gate)” value is reported as “low polyreactivity”.
With “QVQLVESGGGIVQAGGSLRLSCAASGSIFKYYAMARYRQAPGKERELVASMSRVGSTNYADSVKGRFTISRDTAKNTVYLQMNSLKPEDTAVYYCNKRWLYYNLDYWGQGTQVTVSS” the entry was “high polyreactivity”; with “QVQLVESGGGIVQAGGSLRLSCAASGSIFQWYAMGWYRQAPGKERELVAAISFNGGITYYADSVKGRFTISRDNANNTVYLQMNSLKPEDTAVYYCATEYRSASGDYDYWGQGTQVTVSS”, “low polyreactivity”.
With “QVQLVESGGGIVQAGGSLRLSCAASGSIFSGYAMGWYRQAPGKERELVAAIDWSGGTTYYADSVKGRFTISRDNAKNTVYLQMKSLKPEDTAVYYCAAKYPWYLSKDTLYYWGQGTQVTVSS” the entry was “low polyreactivity”; with “QVQLVESGGGIVQAGGSLRLSCAASGSIFWVNVMGWYRQAPGKEREFVAAITRSGGSTYYADSVKGRFTISRDNAKNTVYLQMNSLKPEDTAVYYCNRRGRRGYDYWGQGTLVTVSS”, “high polyreactivity”; with “QVQLVESGGGIVQAGGSLRLSCAASGSILYFNAMGWYRQAPGKERELVAAISRTGSRTYYADSVKGRFTISRDNAKNTVYLQMNSLKPEDTAVYYCAAYNGITSHLRFDYWGQGTQVTVSS”, “high polyreactivity”.
For “QVQLVESGGGIVQAGGSLRLSCAASGSTFDVYAMGWYRQAPGKERELVAVINTSGTRTYYADSVKGRFTISRDNAKNTVYLQMNSLKPEDTAVYYCAVSYLSTLGRSRYDYWGQGTQVTVSS”, the “polyreactivity (PSR sort gate)” value is given as “low polyreactivity”.
Next, “QVQLVESGGGIVQAGGSLRLSCAASGSTFFDNAIGWYRQAPGKERELVAAITRGGSKHYADSVMGRFTISRDNAKNTVYLQMNSVKPEDTAVYSCNAQRYRVPYDYWGQGTQVTVSS”: “low polyreactivity”; “QVQLVESGGGIVQAGGSLRLSCAASGSTFFDNAMGWYRQAPGKERDLVAAISLTDGITYDADSVKGRFTISRDNAKNTVYLQMNSLKPEDTAVYYCNAVYDWSLDQVWDYFEYEYWGQGSQVTVSS”: “high polyreactivity”.
For the sequence “QVQLVESGGGIVQAGGSLRLSCAASGSTFSYNAMGWDRQAPGKERELVAAITSRGGSTRYADSVKGRFTISRDNAKNTVYLQMNSLKPEDTAVYYCARPYSYYPYSTVNYWGQGTQVTVSS”, the “polyreactivity (PSR sort gate)” value is “high polyreactivity”.
Consider “QVQLVESGGGIVQAGGSLRLSCAASGSTFYRYVMGWYRQAPGKERELVAAISWSGGSTYYADSVKGRFTISRDNAKNTVYLQMNSLKPEDTAVYYCAAVHKVGWSRHYDYWGQGTQVTVSS”, for which the “polyreactivity (PSR sort gate)” value was “high polyreactivity”.
With “QVQLVESGGGIVQAGGSLRLSCAASGSTIDYNAMGWYRQARGQERELVAAITSGGSTSYADSVKGRFTISRENAKNTVYLQMNSLKPEDTAGYYCAVKRYWLWWYDYWGQGTQVTVSS” the entry was “high polyreactivity”; with “QVQLVESGGGIVQAGGSLRLSCAASGTFGYAMGWYRQAPGKERELVAAISYSGGSTYYADSVKGRFTISRDNAKNTVYLQMNSLKPEDTAVYYCAARTTLSYGYDYWGQGTQVTVSS”, “high polyreactivity”.
Next, “QVQLVESGGGIVQAGGSLRLSCADSGITFKYYAMGWYRQAPGKERQWVAAISRSGGSTYYADSVKGRFTISRDNAKNTVYLQMNSLIAEDTAVYYCNAELYSVYLGFGYWGQGTQVTVSS”: “high polyreactivity”.
With “QVQLVESGGGIVQAGGSLRLSCADSGRTFGYYGMGWYRQAPGKERELVASINFSSGSTFYADSVKGRFTISRDNAKNTVYLQMNSLKPEDTAVYYCAGRAKAVRTYAYNYWGQGTQVTVSS”, the “polyreactivity (PSR sort gate)” value is “low polyreactivity”.
As to “QVQLVESGGGIVQAGGSLRLSCADSGSTFRDNAMGLYRQAPGKERELVAAITVIDGTTYYADSVKGRFTISRDNAKNTVYLQMNSLKPEDTAVYYCAADTIWYEYYYWGQGTQVTVSS”, the “polyreactivity (PSR sort gate)” value is “low polyreactivity”.
With “QVQLVESGGGIVQAGGSLRLSCPASGRIFGPNAMGGYRQAPGKERELVAVISRRGTSTYYADSVKGRFTISRDNAKNTVYLQMNRLKPEDTAVYYCAAGGHYLYDYWGQGTQVTVSS” the entry was “high polyreactivity”; with “QVQLVESGGGIVQAGGSLRLSSAASGFTFDSNAMGWYRQPPGKERELVAAISASGDSTYYADSVKGRFTISRDNAKNTVYLQMNSLKPEDTAVYYCAADSYYGGWRFDHWGQGTQVTVSS”, “low polyreactivity”.
Next, “QVQLVESGGGIVQAGGSLRLTCAASGRIFRSYAMGWYRQAPGKERELVATITWSGTSTYADSVKGRFTISRDNAKNTVYLQMNSLKPEDTAVYYCAAVALFPKYRYYSWGQGTQVTVSS”: “high polyreactivity”.
